Measured values from patent publication US20100249038A1, “ANTAGONISTS OF THE RECEPTOR FOR ADVANCED GLYCATION END-PRODUCTS (RAGE)” (Board of Regents, University of Texas System, priority 2007, published 2010).
Non-standard residues stand in square brackets, D forms with d.

Columns and labels:
[1] = target: T1, RAGE (sRAGE, extracellular domain) (Homo sapiens, UniProt Q15109); assay: ELISA of amphoterin (HMGB1) binding to coated sRAGE; settings: amphoterin 0-100 ng; FIG. 9; p<0.05 versus HMGB1 alone
T1 construct: the extracellular domain of RAGE peptide (sRAGE) was coated onto the ELISA plate
T1 sequence (Q15109 23-342 limits assumed): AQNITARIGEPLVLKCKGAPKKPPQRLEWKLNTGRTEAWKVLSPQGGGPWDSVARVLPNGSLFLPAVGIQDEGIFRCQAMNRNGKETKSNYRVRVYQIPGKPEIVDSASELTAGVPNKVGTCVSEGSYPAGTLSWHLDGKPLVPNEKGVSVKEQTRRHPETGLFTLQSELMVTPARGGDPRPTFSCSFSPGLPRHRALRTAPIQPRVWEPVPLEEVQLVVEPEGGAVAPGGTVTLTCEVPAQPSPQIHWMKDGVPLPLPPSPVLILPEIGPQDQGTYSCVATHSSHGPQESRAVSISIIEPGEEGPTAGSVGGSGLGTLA
Excerpt: S100P peptide antagonists having the sequence Ac-ELKVLMEKEL-NH2 were made with standard L isomers of amino acids. This peptide antagonist comprises the amino acid sequence referred to as SEQ ID NO: 1 (ELKVLMEKEL), and in this instance the termini were blocked to prevent and/or reduce degradation. The inverse sequence, Ac-LEKEMLVKLE-NH2 was produced using D isomers of amino acids. This peptide antagonist comprises the amino acid sequence referred to as SEQ ID NO: 4 (LEKEMLVKLE), and in this instance the termini were blocked to prevent and/or reduce degradation. D isomers of amino acids, which are not naturally occurring, are thought to provide prolonged half-life in vivo. […] For this study, the extracellular domain of RAGE peptide (sRAGE) was coated onto the ELISA plate for 1 hour and non-specific binding sites were blocked with 1% BSA for 15 minutes. Amphoterin (0-100 ng) was added and incubated for 1 hour to allow its binding to its receptor and unbound molecules were removed by washing. Primary antibody against amphoterin and secondary antibody labeled with HRP and subsequently substrate for HRP was used to detect bound amphoterin with its receptor sRAGE. […] A control peptide of the same size had no effect. *=p<0.05 versus HMGB1 alone.
Inhibition of the binding of amphoterin to RAGE by antagonist peptides was tested using an in vitro ELISA based binding assay. […]

[2] = target: T1, RAGE (sRAGE, extracellular domain); assay: ELISA of S100P binding to coated sRAGE; settings: FIG. 10
[3] = target: T1, RAGE (sRAGE, extracellular domain); assay: ELISA of S100A4 binding to coated sRAGE; settings: FIG. 10
[4] = tested on: S100P induced NFκB activity in pancreatic cancer MPanc-96 cells; assay: S100P induced NFκB-Luc reporter activity in MPanc-96 cells; assay type: cell-based; settings: pre-treatment with peptide, FIG. 11
Excerpt: MPanc-96 pancreatic cancer cells were stably transfected with a reporter plasmid, NFκB-Luc reporter, that provides a quantifiable photon output based on NFκB transcriptional activity. Extracellular addition of S100P to the cells induced the NFκB activity, which has previously been proven to be mediated through interaction with RAGE. Pre-treatment of the cells with S100P peptide antagonists (L-peptide and D-peptide), block S100P binding with its receptor RAGE, thus blocking S100P induced NFκB activity. Results of this assay are depicted in FIG. 11.

[5] = tested on: NFκB activity in subcutaneous MPanc-96 tumors; assay: NFκB-Luc activity in subcutaneous MPanc-96 tumors after intratumoral injection; assay type: in vivo, nude mice; settings: 10 mg/kg b.wt intratumorally, measured after 4 hours; FIG. 12
Procedure: S100P peptide antagonists (L-peptide and D-peptide) block NFκB activity in vivo in subcutaneous tumors. MPanc-96 pancreatic cancer cells stably transfected with the NFκB-Luc reporter were injected into nude mice subcutaneously (1×10^6) and in vivo NFκB activity indicated by luciferase was measured using an IVIS-100 bioluminescence system. S100P peptide antagonists (L-peptide and D-peptide) (10 mg/kg·b·wt) were injected intratumorally and NFκB activity was measured after 4 hours. […] Thus, delivery of peptide antagonists by direct injection in subcutaneous tumors inhibits NFκB as an indirect read-out of RAGE.

[6] = tested on: NFκB activity in orthotopic MPanc-96 tumor; assay: NFκB-Luc activity in orthotopic MPanc-96 tumors after intraperitoneal injection; assay type: in vivo; settings: 10 mg/kg b.wt intraperitoneally, measured after 4 hrs; p<0.05; FIG. 13
Procedure: MPanc-96 pancreatic cancer cells stably transfected with the NFκB-Luc reporter were injected orthotopically into the pancreas (1×10^6), and NFκB activity indicated by luciferase activity was measured after two weeks. S100P peptide antagonists (L-peptide and D-peptide) (10 mg/kg·b·wt) were injected intraperitoneally and NFκB activity in the orthotopic tumor was measured after 4 hrs.

[7] = tested on: NFκB activity stimulated by S100P in Panc-1 cells; assay: NFκB luciferase reporter activity stimulated by S100P in Panc-1 cells; assay type: cell-based; settings: S100P 100 nM, peptide 1 μg/ml, 4 hours, FIG. 7B
Procedure: (§1) The effect of these novel peptide antagonists was evaluated on NFκB activity stimulated by S100P in Panc-1 cells. Panc-1 cells stably expressing the NFκB luciferase reporter gene were treated with or without S100P (100 nM) and either peptides of SEQ ID NOs: 1, 2 or 3 (1 μg/ml) for 4 hours. NFκB activity was estimated using luciferase quantitation. Numbers represent means±SE of triplicate determinations. * vs S100P alone (p<0.05); # vs control (p<0.05). Furthermore, administration of peptide of SEQ ID NO: 1 but not SEQ ID NO: 3 inhibited basal NFκB activity in S100P expressing BxPC3 cell tumors when administered in vivo as shown in FIG. 8. BxPC3 cells stably expressing an NFκB luciferase reporter were transplanted to scid mice and tumors were allowed to form. Animals were then injected i.p. with either peptide of SEQ ID NO: 1 (FIG. 8A) or SEQ ID NO: 3 (FIG. 8B). Imaging of luciferase activity was performed before and 24 h after peptide delivery. […] Numbers represent means±SE of triplicate determinations. *=p<0.05 vs time 0.

[8] = tested on: NFκB activity in S100P expressing BxPC3 cell tumors; assay: Basal NFκB luciferase activity in BxPC3 cell tumors in vivo after i.p. peptide; settings: BxPC3 tumors in scid mice, 24 h after peptide delivery vs time 0, FIG. 8
Procedure: as §1

RAGE [9] = target: T2, RAGE (Homo sapiens, UniProt Q15109); assay: ELISA-type assay of purified S100P binding to coated purified RAGE; set-up: Purified RAGE was coated into culture wells; settings: peptides 50 μM; FIG. 7A; preliminary studies
Procedure: The binding of purified S100P to RAGE was evaluated using an ELISA technique. Purified RAGE was coated into culture wells, S100P was allowed to bind in the presence and absence of the peptides (50 μM), the dishes were extensively washed, and bound S100P was detected with a specific antibody coupled to HRP.
Target sequence in this assay (Q15109 23-342): as the sequence (Q15109 23-342 limits assumed) above

[10] = tested on: human umbilical vein endothelial cells (HUVECs); assay: HUVEC cell number after S100P treatment (MTS); assay type: cell-based; settings: S100P treatment for 48 hrs vs uninduced bacterial protein; FIG. 4A
Procedure: (§2) S100P is secreted by pancreatic cancer cells and acts in an autocrine manner to stimulate their growth, survival, and invasiveness. Thus, S100P could also interact with receptors on cells within the microenvironment. The effects of S100P on human umbilical vein endothelial cells (HUVECs) in vitro were examined. […] HUVEC cells were cultured in the presence of either S100P or uninduced bacterial protein for 48 hours and the number of cells was estimated using MTS. […] Tumors formed with BxPC3 cells were harvested and frozen sections were stained for CD31 staining with the help of the Cancer Biology Histology core. Microvessels bearing CD31 are stained brown. […] HUVEC cells were plated on Matrigel and followed for 4 hours. After this time, control cells mostly remained individually isolated while a few cells began to migrate and align themselves and occasional sprouting was observed. At 4 hrs, cells treated with S100P had mostly migrated aligned themselves, sprouted, formed closed polygons and a complex mesh like structure had developed.

[11] = tested on: human umbilical vein endothelial cells (HUVECs); assay: HUVEC migration and alignment on Matrigel; assay type: cell-based; settings: 4 hours, FIG. 4C
Procedure: as §2

RAGE [12] = target: T2, RAGE; assay: Co-immunoprecipitation of RAGE with S100P from pancreatic cancer cell lysates; assay type: binding; set-up: endogenous in cells; host or cells: MiaPaca2, BxPC3 (and Panc-1, printed 'Panel') cell lysates; settings: S100P 100 ng, 16 hours at 4° C., FIG. 5
Procedure: As a direct indication of this interaction, lysates from Panel, and MiaPaca2 cells were incubated with S100P and S100P was then immunoprecipitated. RAGE was not present in the samples run without addition of S100P or S100P antibody (lanes A-C), but RAGE was present when both these reagents were included (lanes D-F). […] In these experiments MiaPaca2 (A-D) and BxPC3-1 (E) cell lysates were incubated in the presence of S100P (100 ng) for 16 hours at 4° C. before immunoprecipitation with anti-S100P monoclonal antibodies (IP-S100P) (+) or control IgG (−) and RAGE was identified in the immunoprecipitates by western blotting with an anti-RAGE antibody (IB-RAGE).
Target sequence in this assay (Q15109 23-404): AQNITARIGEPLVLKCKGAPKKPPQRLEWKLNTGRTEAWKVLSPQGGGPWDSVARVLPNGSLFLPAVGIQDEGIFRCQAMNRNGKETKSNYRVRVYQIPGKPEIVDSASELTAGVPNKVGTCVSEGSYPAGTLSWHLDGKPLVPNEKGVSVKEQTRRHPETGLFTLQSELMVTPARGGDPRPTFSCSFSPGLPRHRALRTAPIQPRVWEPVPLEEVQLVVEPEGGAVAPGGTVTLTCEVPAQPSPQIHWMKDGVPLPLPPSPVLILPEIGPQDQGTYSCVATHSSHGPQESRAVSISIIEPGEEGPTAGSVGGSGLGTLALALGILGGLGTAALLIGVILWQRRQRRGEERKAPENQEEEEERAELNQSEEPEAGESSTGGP

“Ac-ELKVLMEKEL-NH2 (listed as Homo sapiens) [L-peptide]” was tested, and the “block of amphoterin (HMGB1) binding to RAGE” value [1] was “competed with amphoterin and blocked its ability to bind with RAGE”, the “block of S100P binding to RAGE” value [2] was “compete for binding of S100P” and the “block of S100A4 binding to RAGE” value [3] was “blocked”. The “block of S100P induced NFκB activity” value [4] was “block S100P induced NFκB activity”, the “reduction in NFκB activity in subcutaneous tumors” value [5] was “strong reduction in NFκB activity” and the “inhibition of cancer cell NFκB activity in orthotopic tumor” value [6] was “significant inhibition of cancer cell NFκB activity”.

For “Ac-LEKEMLVKLE-NH2 (Ac-[dL][dE][dK][dE][dM][dL][dV][dK][dL][dE]-NH2; SMILES CSCC[C@@H](NC(=O)[C@@H](CCC(=O)O)NC(=O)[C@@H](CCCCN)NC(=O)[C@@H](CCC(=O)O)NC(=O)[C@@H](CC(C)C)NC(C)=O)C(=O)N[C@H](CC(C)C)C(=O)N[C@@H](C(=O)N[C@H](CCCCN)C(=O)N[C@H](CC(C)C)C(=O)N[C@H](CCC(=O)O)C(N)=O)C(C)C; listed as Homo sapiens) [D-peptide]”, the “block of amphoterin (HMGB1) binding to RAGE” value [1] was “competed with amphoterin and blocked its ability to bind with RAGE”, the “block of S100P binding to RAGE” value [2] was “compete for binding of S100P” and the “block of S100A4 binding to RAGE” value [3] was “blocked”. For the same molecule, the “block of S100P induced NFκB activity” value [4] was “block S100P induced NFκB activity”, the “reduction in NFκB activity in subcutaneous tumors” value [5] was “strong reduction in NFκB activity” and the “inhibition of cancer cell NFκB activity in orthotopic tumor” value [6] was “significant inhibition of cancer cell NFκB activity”.

With “ELKVLMEKEL (listed as Homo sapiens) [SEQ ID NO: 1]” the “block of the activation of NFκB by S100P” value [7] was “could also block the activation of NFκB by S100P”, the “inhibition of basal NFκB activity in tumors in vivo” value [8] was “caused a significant reduction in NFκB activity” and the “block of the interaction of S100P with RAGE” value (“block … with RAGE” below) (RAGE [9]) was “could block the interaction of S100P with RAGE”.

For “GKDGDAVDKLLKD (listed as Homo sapiens) [SEQ ID NO: 3, b142 prints …]”, the “block of the activation of NFκB by S100P” value [7] was “could also block the activation of NFκB by S100P”, the “inhibition of basal NFκB activity in tumors in vivo” value [8] was “did not” and the “block … with RAGE” value (RAGE [9]) was “could block the interaction of S100P with RAGE”.

In the case of “KELPGFLQSGKDKD (listed as Homo sapiens) [SEQ ID NO: 2]”, the “block of the activation of NFκB by S100P” value [7] is reported as “not” and the “block … with RAGE” value (RAGE [9]) is reported as “not”.

B1: S100P: S100 family calcium-binding protein, RAGE ligand, added exogenously as purified protein (protein, UniProt P25815 1-95, looked up)
Protein S100-P: MTELETAMGMIIDVFSRYSGSEGSTQTLTKGELKVLMEKELPGFLQSGKDKDAVDKLLKDLDANGDAQVDFSEFIVFVAAITSACHKYFEKAGLK
With B1 the HUVEC cell numbers [10] was “significant increase in HUVEC cell numbers”, the “endothelial cell migration and alignment” value [11] was “increased endothelial cell migration and alignment” and the “direct interaction with RAGE (RAGE in S100P immunoprecipitates)” value (RAGE [12]) was “able to interact directly with RAGE”.
